Tests used:
monolayer ES cells = assay: In vitro differentiation of monolayer ES cells, RT-PCR of differentiation marker genes; format: cell-based, mouse; details: SRF-containing (Srf(−/+)) ES cells in monolayer, LIF withdrawal plus agent
Description: In vitro differentiation conditions. For differentiation experiments, cells were seeded in monolayers on gelatin-coated dishes and kept overnight in complete medium. The first day after seeding was defined to be day 0 of differentiation. The medium was then exchanged by complete medium lacking LIF or complete medium without LIF, but containing either 0.8% dimethylsulfoxide (DMSO) or 5×10^−7 M all-trans RA, respectively. Medium was exchanged daily and cells were harvested at the indicated time points for RT-PCR analysis. The vitality was determined by trypan blue staining. The vitality of detached cells was less than 5%.
Total RNA preparation (RNeasy kit, QUIAGEN) and first strand cDNA synthesis (Superscript II, Gibco) were done according to the manufacturers protocols. 1 μg of total RNA treated with DNAse I was used for reverse transcription. […] For quantitative analysis, SYBR Green PCR technology was used (Perkin Elmer). Real time detection of the PCR product was monitored by measuring the increase in fluorescence caused by the binding of SYBR Green to double-stranded DNA with ABI PRISM 7700 Sequence Detector. In order to do relative quantification, a threshold cycle (Ct), the cycle at which a statistically significant increase in fluorescence occurs, was derived from the resulting PCR profiles of each sample. […] The relative quantitation value is expressed as […]. […]

Srf(−/−) ES cells = assay: F-actin / stress fiber immunofluorescence and cell morphology after transient transfection of ES cells; format: cell-based, mouse
Description: Alternatively, the cells were grown on gelatine-coated coverslips in complete growth medium for 48 hours, or as EBs in droplets for up to 8 days. The samples were then fixed in 4% formaldehyde and permeabilized in 0.2% Triton-X 100. Non-specific binding was blocked by incubating the cells for one hour in 1% BSA in PBS at 37° C. before staining with primary antibodies for 1 hour at 37° C. Incubation with fluorescence conjugated secondary antibodies (Molecular Probes, 1:200 in 0.2% BSA) was performed for 30 min at 37° C. To visualize filamentous actin, 1 unit Oregon-green phalloidin was included into the mixture. Coverstips were washed four times with PBS, once in water, air-dried and mounted in Moviol. Image acquisition was done with LSM 510 (Zeiss).
(C) SRF-VP16 expression leads to increased stress fiber formation. […] ES cells were transiently transfected with SRF-VP16 (upper panel) and the SRF-M-VP16 control construct (lower panel) and processed for immunofluorescence analysis three days later. […]
SRF-VP16 fusion proteins were previously used to drive SRF-dependent transcription independent of upstream signalling cascades (Hines et al., 1999; Johansen and Prywes, 1994;Treisman et al., 1992). […] Undifferentiated ES cells were transiently transfected with SRF-VP16 and SRF M-VP16 expression vectors, and RNA expression levels were measured by quantitative RT-PCR (FIG. 17B). […]

C[S+](C)[O-] [DMSO, dimethylsulfoxide]
timing of mesodermal marker gene induction versus LIF withdrawal alone (monolayer ES cells): earlier induction

B1: zyxin: focal adhesion protein transiently overexpressed in Srf(−/−) ES cells (protein, UniProt Q15942 2-572, looked up)
Zyxin: AAPRPSPAISVSVSAPAFYAPQKKFGPVVAPKPKVNPFRPGDSEPPPAPGAQRAQMGRVGEIPPPPPEDFPLPPPPLAGDGDDAEGALGGAFPPPPPPIEESFPPAPLEEEIFPSPPPPPEEEGGPEAPIPPPPQPREKVSSIDLEIDSLSSLLDDMTKNDPFKARVSSGYVPPPVATPFSSKSSTKPAAGGTAPLPPWKSPSSSQPLPQVPAPAQSQTQFHVQPQPQPKPQVQLHVQSQTQPVSLANTQPRGPPASSPAPAPKFSPVTPKFTPVASKFSPGAPGGSGSQPNQKLGHPEALSAGTGSPQPPSFTYAQQREKPRVQEKQHPVPPPAQNQNQVRSPGAPGPLTLKEVEELEQLTQQLMQDMEHPQRQNVAVNELCGRCHQPLARAQPAVRALGQLFHIACFTCHQCAQQLQGQQFYSLEGAPYCEGCYTDTLEKCNTCGEPITDRMLRATGKAYHPHCFTCVVCARPLEGTSFIVDQANRPHCVPDYHKQYAPRCSVCSEPIMPEPGRDETVRVVALDKNFHMKCYKCEDCGKPLSIEADDNGCFPLDGHVLCRKCHTARAQT
rescue of defective actin cytoskeleton (Srf(−/−) ES cells; transient overexpression in Srf(−/−) ES cells): did not rescue the defective actin cytoskeleton

B2: wildtype SRF protein: wildtype serum response factor reintroduced by expression vector (protein, UniProt P11831 1-508, looked up)
Serum response factor: MLPTQAGAAAALGRGSALGGSLNRTPTGRPGGGGGTRGANGGRVPGNGAGLGPGRLEREAAAAAATTPAPTAGALYSGSEGDSESGEEEELGAERRGLKRSLSEMEIGMVVGGPEASAAATGGYGPVSGAVSGAKPGKKTRGRVKIKMEFIDNKLRRYTTFSKRKTGIMKKAYELSTLTGTQVLLLVASETGHVYTFATRKLQPMITSETGKALIQTCLNSPDSPPRSDPTTDQRMSATGFEETDLTYQVSESDSSGETKDTLKPAFTVTNLPGTTSTIQTAPSTSTTMQVSSGPSFPITNYLAPVSASVSPSAVSSANGTVLKSTGSGPVSSGGLMQLPTSFTLMPGGAVAQQVPVQAIQVHQAPQQASPSRDSSTDLTQTSSSGTVTLPATIMTSSVPTTVGGHMMYPSPHAVMYAPTSGLGDGSLTVLNAFSQAPSTMQVSHSQVQEPGGVPQVFLTASSGTVQIPVSAVQLHQMAVIGQQAGSSSNLTELQVVNLDTAHSTKSE
effects on gene expression and cytoskeletal rearrangements (Srf(−/−) ES cells; reintroduction by transient transfection): only minor effects

From patent US20040009913A1, “Use of serum response factor (srf) modulator for treating srf related diseases” (priority 2000, published 2004)
